What was measured:
[1] = substrate: CCCC=O; test: AR kinetics, aldehyde reduction followed by NAD(P)H oxidation; format: biochemical, Streptomyces coelicolor; settings: other: butyraldehyde, pH 7.5
Text: (§1) 28 aldehyde reductases from different bacteria were cloned and overexpressed in E. coli. Enzymes purified using affinity chromatography on Ni-NTA resin were screened for reductase activity with adipaldehyde and butyraldehyde in presence of both NADPH and NADH (Table 5). Butyraldehyde was used as a substrate substitute for 4-oxo-butanal, which is not commercially available. Reactions were followed spectrophotometrically, by cofactor oxidation at 340 nm.
(§2) Enzyme activity of purified ARs was measured spectrophotometrically in 96-well plates Reaction mixtures contained 100 mM HEPES buffer (pH 7.5), 0.4 mM NADH/NADPH, 10 mM adipaldehyde or butylaldehyde, and proteins (10 μg for adipaldehyde screen, 2 μg for butyraldehyde screen) in a final volume of 200 μL Reaction mixture for adipaldehyde screening contained 1.8% DMSO. Enzyme reactions were monitored by following the decrease in absorbance at 340 nm (ε340 nm=6,220/M·cm) due to oxidation of NAD(P)H to NAD(P)+.
(§3) ARs RHA1_ro05279, PA1146, SC00229, PP_3370 were characterised for saturation with adipaldehyde, PP_3370, PSPTO_2097, RHA1_ro05279, SC00229, TM_0111, PA1146 were characterised for butyraldehyde saturation (Table 10). […] For both substrates maximal kcat/Km with minimal Km values was shown by AR PP 3370 from Pseudomonas putida.

[2] = substrate: O=CCCCCC=O; test: as above; format: biochemical, Streptomyces coelicolor; settings: other: adipaldehyde; cofactor NADPH; 1,8% DMSO; pH 7.5
Text: as §1, §2, §3

[3] = substrate: O=C(O)/C=C/c1ccccc1; test: Kinetics of purified EREDBC, NADH oxidation at 340 nm, anaerobic; format: biochemical, Bacillus coagulans 36D1; settings: other: trans-cinnamic acid, pH 7.0, 30° C., anaerobic
Protocol: (§4) The C═C reducing activity of EREDs was examined. Enzyme activity of purified EREDs was measured spectrophotometrically in 96-well plates by following incubation for 3-5 min at 30° C. in the anaerobic chamber as described in M. Buhler, H. Simon, Hoppe-Seyler's Zeitschrift fur Physiologische Chemie 1982, 363, 609-625. Buffers and reagents were degassed and sparged with Ar. Reaction mixture contained potassium phosphate (100 mM and pH 7.0), NADH (0.5 mM), indicated substrates, and proteins (0.1-50 μg) in a final volume of 200 μL. Enzyme reactions were monitored by following the decrease in absorbance at 340 nm (ε340 nm=6,220/M·cm) due to oxidation of NADH to NAD+.
(§5) For in vitro biochemical characterization, enzyme activities of purified EREDs were measured with 2-hexenedioic acid, cis-cis-muconic acid, trans-trans muconic acid, trans-cinnamic acid, trans-2-methyl-2-butenoic acid, trans-2-butenoic acid, acrolein, 2-cyclohexen-1-one, and 3-methyl-2-cyclohexenone. […] [Feng, J. et al. Discovery and Characterization of BlsE, a Radical S-Adenosyl-L-methionine Decarboxylase Involved in the Blasticidin S Biosynthetic Pathway. PLoS ONE 8 (2013)].
(§6) Kinetic studies of purified EREDBC were performed using 2-hexenedioic acid, 2-cyclohexen-1-one, 3-methyl-2-cyclohexenone, and trans-cinnamic acid as substrates (FIG. 10).
(§7) To increase the dissolved substrate concentration, 2-hexenedioic acid was dissolved in a reaction mixture containing […] (final concentration) isopropanol, and kinetic constants of EREDBC and EREDCA were determined.

[4] = substrate: O=C(O)C=CCCC(=O)O; test: as above; format: biochemical, Bacillus coagulans 36D1; settings: other: 2-hexenedioic acid in 0.25 mM isopropanol, 2.5 to 35 mM, sigmoidal kinetics, pH 7.0, 30.0 °C
Protocol: as §4, §5, §6, §7

[5] = substrate: O=CCCCCC=O; test: AT kinetics, coupled with alanine and glutamate dehydrogenases; format: biochemical, Streptomyces avermitilis; settings: other: amino-donor Ala/Glu; pH 7.5
Protocol: (§8) 28 PLP-dependent aminotransferases (from the classes I, II and III) were cloned and overexpressed in E. coli (Table 6). Enzymes were purified using affinity chromatography on a Ni-NTA resin and were screened for […] activity towards adipaldehyde using alanine and glutamate as amino-donors. Enzyme activity was measured spectrophotometrically using a coupled reaction with the NADPH/NADH-dependent alanine and glutamate dehydrogenases in the presence of excess of ammonium chloride.
(§9) Reaction was monitored by following the decrease in absorbance of NAD(P)H to NAD(P)+ at 340 nm (ε340 nm=6,220/M·cm). Coupled enzymes can aminate pyruvate/ketoglutarate produced by ATs in excess of NH4Cl.

[6] = substrate: CCCC=O; test: AR kinetics, aldehyde reduction followed by NAD(P)H oxidation; format: biochemical, Thermotoga maritima; settings: other: butyraldehyde, pH 7.5
Text: as §1, §2, §3

[7] = substrate: O=CCCCCC=O; test: AT kinetics, coupled with alanine and glutamate dehydrogenases; format: biochemical, Escherichia coli; settings: other: amino-donor Ala/Glu; pH 7.5
Protocol: as §8, §9

[8] = substrate: CCCC=O; test: AR kinetics, aldehyde reduction followed by NAD(P)H oxidation; format: biochemical, Pseudomonas putida; settings: other: butyraldehyde, pH 7.5
Text: as §1, §2, §3

[9] = substrate: O=CCCCCC=O; test: as above; format: biochemical, Pseudomonas putida; settings: other: adipaldehyde, 1,8% DMSO, pH 7.5
Text: as §1, §2, §3

B1: Streptomyces coelicolor aldehyde reductase SCO0229, SEQ ID NO: 50 (Streptomyces coelicolor A3(2)) (protein)
chain: MQRQNWLITGVSTGLGRAFAQAALSAGHTVVGTVRSENDVRAFEELGPGHAHGRILDVTDGGAVNGVVAEVERSVGPLDVVVANAGYGLEGTFEETPLAEVRRQFDVNVFGAMATLQAALPHMRARRRGHLMAVTSMGGLMAVPGMSAYCGSKFALEGILEALGKEVAQFGIHVTAIEPGSFRTDWAGRSMTRAARTVADYDDLFAPIREARQKASGNQLGNPAKAGEAVVHITSVDQPPAHLVLGSDALRLVTAARTAVDEDIRAWEALSRTTDFPQGAQL
[1]; cofactor NADH
  Km: 6560 ± 2540 µM
  kcat: 0.90 ± 0.05 s⁻¹
  kcat/Km: (1.07 ± 0.18) × ×10^2 M^−1 · s^−1
[1]; cofactor NADPH
  Km: 35700 ± 10500 µM
  kcat: 21.9 ± 4.69 s⁻¹
  kcat/Km: (6.15 ± 1.31) × ×10^2 M^−1 · s^−1
[2]
  Km: 8480 ± 580 µM
  kcat: 3.79 ± 0.10 s⁻¹
  kcat/Km: (4.47 ± 0.12) × ×10^2 M^−1 · s^−1

B2: Bacillus coagulans 36D1 2-enoate reductase EREDBC, SEQ ID NO: 1 (Heyndrickxia coagulans) (protein)
chain: MKYKKLFETVKIRNVELKNRYAMAPMGPLGLADAEGGFNQRGIEYYTARARGGTALIITGVTFVDNEVEEHGMPNVPCPTHNPVHFVRTSKEMTERIHAYDSKIFLQMSAGFGRVTIPTNLGEYPPVAPSPIPHRWLDKTCRELTVEEIHSIVRKFGDGAFNAKRAGFDGVQIHAVHEGYLLDQFAIAFFNKRTDAYGGPLENRLRFAREIVEEIKQRCGEDFPVTLRFSPKSFIKDWREGALPGEEFEEKGRDLDEGIEAAKLLVSYGYDALDVDVGSYDSWWWSHPPMYQKKGLYIPYARLVKEAVDVPVLCAGRMDNPDLALAALEDGACDIISLGRPLLADPDYVNKLRIGQVADIRPCLSCHEGCMGRIQEYSSLGCAVNPAACREKEAALTPALKKKRVLIAGGGVAGCEAARVLALRGHEPVIFEKSNRLGGNLIPGGAPDFKEDDLALVAWYEHTLERLGVEIHLNTALTKEEILAANVDAVLIATGSNPKILPLDGKNKVFTAEDVLLDKVDAGQHVVIVGGGLVGCELALNLAEKGKDVSLVEMQDKLLAVNGPLCHANSDMLERLVPFKGVQVYTSSKIVDTTEKTAVVDVDGELREIEADSIVLAVGYSAEKSLYEDLKFEVADLHVVGDARKVANIMYAIWDAYEVAANL
[3]
  Km: 510 µM
  kcat: 0.50 s⁻¹
[4]
  Km: 18900 µM

B3: Streptomyces avermitilis aminotransferase SAV2583, SEQ ID NO: 55 (Streptomyces avermitilis MA-4680 = NBRC 14893) (protein)
chain: MSALPQERRVVTAIPGPKSQELQARRTAVVAAGVGSVLPVFTTRAGGGIIEDVDGNRLIDFGSGIAVTSVGASAEAVVRRASAQLQDFTHTCFMVTPYEGYVAVAEALAELTPGDHAKKSALFNSGAEAVENAVKIARAYTKRQAVVVFDHGYHGRTNLTMALTAKNMPYKNGFGPFAPEVYRVPVAYGYRWLTGPENAGAEASAQAIDMINKQIGADNVAAIIIEPVLGEGGFIEPAKGFLPAISKFAKDNGIVFVADEIQSGFCRTGQWFACEDEGIVPDLITTAKGIAGGLPLAAVTGRAEIMDAAHAGGLGGTYGGNPVACAGALGAIETMKELDLNAKAKNIEAVMKARLGAMAEKFDIIGDVRGRGGMIAIELVKDRDTKEPNPEAAGALAKACHQEGLLVLTCGTYGNVLRFLPPLVIGEDLLNEGLDIIEQAFSRI
[5]
  Km: 1350 ± 190 µM
  kcat: 0.39 ± 0.02 s⁻¹
  kcat/Km: (2.90 ± 0.13) × ×10^2 M^−1 · s^−1

B4: Thermotoga maritima aldehyde reductase TM_0111, SEQ ID NO: 52 (Thermotoga maritima MSB8) (protein)
chain: MFKISFYLPTEIIFRVGAVDELEERAKKLGKKALIVTGRSSTKKTGLLQRVVDLLKKAGVESFVFDKIVPNPISDHVDEAAEIVRKEKIDFIIGLGGGSPIDSAKAISITAPNEGKFWDYVPVGGGKIPEKSIPVVAIPTTHGTGTEADPFAVITNPQTKEKVGIGYRNTFPVLSLVDPEVMKTLPKDQTAYTSMDAFYHAIEAFLNVNANPYSDVLALDAMKRIVTYLPVAYENGEDMEARTNLAWASTEAGITETLTGVIANHALEHGLSGFYPEITHGLGLCITGPYLFEYIFDHAYERLAIVGREVFGVYETDDRKAGRLAIKKLRDFQEMFGLNKRLSELGVKKEDIPKMAETGYRILNGVVVVTPGNLTAKDMEEIFNRCY
[6]; cofactor NADH
  Km: 1370 ± 310 µM
  kcat: 0.90 ± 0.05 s⁻¹
  kcat/Km: (6.57 ± 0.36) × ×10^2 M^−1 · s^−1
[6]; cofactor NADPH
  Km: 2720 ± 1390 µM
  kcat: 0.30 ± 0.06 s⁻¹
  kcat/Km: (1.10 ± 0.22) × ×10^2 M^−1 · s^−1

B5: Escherichia coli aminotransferase gabT, SEQ ID NO: 53 (Escherichia coli K-12) (protein)
chain: MNSNKELMQRRSQAIPRGVGQIHPIFADRAENCRVWDVEGREYLDFAGGIAVLNTGHLHPKVVAAVEAQLKKLSHTCFQVLAYEPYLELCEIMNQKVPGDFAKKTLLVTTGSEAVENAVKIARAATKRSGTIAFSGAYHGRTHYTLALTGKVNPYSAGMGLMPGHVYRALYPCPLHGISEDDAIASIHRIFKNDAAPEDIAAIVIEPVQGEGGFYASSPAFMQRLRALCDEHGIMLIADEVQSGAGRTGTLFAMEQMGVAPDLTTFAKSIAGGFPLAGVTGRAEVMDAVAPGGLGGTYAGNPIACVAALEVLKVFEQENLLQKANDLGQKLKDGLLAIAEKHPEIGDVRGLGAMIAIELFEDGDHNKPDAKLTAEIVARARDKGLILLSCGPYYNVLRILVPLTIEDAQIRQGLEIISQCFDEAKQ
notes: 6His-tag (N); made in house; host or cells: E. coli BL21 (DE3)
[7]
  Km: 670 ± 70 µM
  kcat: 0.61 ± 0.02 s⁻¹
  kcat/Km: 9.22±0.27 ×10^2 M^−1 · s^−1

B6: Pseudomonas putida aldehyde reductase PP_3370, SEQ ID NO: 45 (Pseudomonas putida KT2440) (protein)
chain: MQYVKLGSTGLDISRLCLGCMTFGEPDAGTHPWTLGEDASRPIIRHAVEQGINFFDTANSYSAGTSEIILGKLLREFTRREETVIATKVFFPANMWEGASRPNEQGLSRKAIMANIDASLSRLGTDYVDLYQIHRWDYHTPIEETMEALHDVVKAGKARYIGASSMYAWQFAKAQQVAANHGWSRFVSMQNYLNLIYREEEREMIPLCLDQGVGLMPWSPMARGRLTRPHGQQTQRTRTDVSGQSFYEKTEVEDGRVIDVVEQIASERGVPMAQVALAWVLGRAGVSAPIVGASKPAHLDDALGALSLQLSEDEVARLQAPYVPHAVTGFK
[8]; cofactor NADH
  Km: 16100 ± 1890 µM
  kcat: 10.7 ± 0.73 s⁻¹
  kcat/Km: (6.64 ± 0.45) × ×10^2 M^−1 · s^−1
[8]; cofactor NADPH
  Km: 1530 ± 110 µM
  kcat: 8.54 ± 0.22 s⁻¹
  kcat/Km: 5.58±0.14 ×10^3 M^−1 · s^−1
[9]; cofactor NADH
  Km: 4780 ± 490 µM
  kcat: 1.74 ± 0.08 s⁻¹
  kcat/Km: (3.64 ± 0.16) × ×10^2 M^−1 · s^−1
[9]; cofactor NADPH
  Km: 290 ± 20 µM
  kcat: 6.03 ± 0.25 s⁻¹
  kcat/Km: 2.08±0.09 ×10^4 M^−1 · s^−1

Reference: US12371675B2, “Process and microorganism for synthesis of adipic acid from carboxylic acids” (THE GOVERNING COUNCIL OF THE UNIVERSITY OF TORONTO, priority 2015, dated 2025)
